{
  "source": "patent US20030152946A1",
  "about": "“Bh4-fused polypeptides” (priority 1999, published 2003)",
  "key": {"Rat liver VDAC": {"molecular_target": "T1, Rat liver VDAC (Rattus norvegicus, UniProt Q9Z2L0)", "T1 construct": "Rat liver VDAC was purified in accordance with a report made by Shimizu et al; from tissue; host or cells: rat liver (mitochondria)", "T1 sequence (Q9Z2L0 whole entry)": "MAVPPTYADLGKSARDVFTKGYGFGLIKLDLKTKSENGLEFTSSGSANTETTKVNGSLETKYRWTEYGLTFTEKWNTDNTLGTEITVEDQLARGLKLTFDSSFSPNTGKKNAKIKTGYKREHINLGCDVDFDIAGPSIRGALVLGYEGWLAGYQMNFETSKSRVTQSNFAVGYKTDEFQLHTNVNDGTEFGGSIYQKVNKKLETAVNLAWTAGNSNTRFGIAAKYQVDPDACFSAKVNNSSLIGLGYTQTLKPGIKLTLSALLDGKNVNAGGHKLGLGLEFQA", "experiment": "VDAC activity: sucrose uptake into VDAC liposomes (liposomal swelling, light scatter at 520 nm)", "type": "biochemical", "details": "for Inhibition of VDAC activity (VDAC-mediated sucrose uptake): 20 μg/ml protein or polypeptide", "procedure": "Purified VDAC was reconstituted in small unilamellar vesicles by the ultrasonic freeze-thaw procedure described in a report made by Shimizu et al. [Nature, 399, 483-487 (1999)]. Sucrose uptake experiment was performed by assessing liposomal swelling.\nLiposomes produced at pH 5.2 were incubated at 25° C. in 1 ml of liposome buffer together with rBcl-xL, rΔ21, rBax or a polypeptide for 3 minutes. Here, acidic pH was a required condition for efficient uptake of rBcl-xL and rBax into the liposomes. Thereafter, sucrose was added up to a concentration of 50 mM to the mixture, and the liposomal swelling was assessed by the decrease in light scatter at a wavelength of 520 nm using a spectrophotometer (F-4500, manufactured by Hitachi, Ltd.). Sucrose uptake was also estimated from ^14C-sucrose uptake as described in the report made by Shimizu et al. [Nature, 399, 483-487(1999)].\nNext, the functional role of the BH4 domain in the regulation of VDAC activity was examined. VDAC activity was measured by assessing sucrose uptake into VDAC-containing liposomes, using the two procedures: a method with radiolabeled sucrose described in a report made by Shimizu et al. [Nature, 399, 483-487 (1999)], and a method for measuring a sucrose uptake-dependent liposomal swelling that was monitored by decrease in light scatter. Since sucrose-uptake-dependent liposomal swelling was confirmed by microscopic observation or flow cytometric analysis, it is thought that the liposomal swelling is based on the rapid influx of sucrose and water through large VDAC pores which overwhelmed osmosis-dependent efflux of water."}, "VDAC": {"molecular_target": "T2, VDAC (Rattus norvegicus, UniProt Q9Z2L0)", "T2 construct": "from tissue; host or cells: rat liver (purified VDAC, or isolated mitochondria)", "T2 sequence (Q9Z2L0 whole entry)": "as above", "experiment": "Co-immunoprecipitation with VDAC and Western blot", "type": "binding", "details": "20 μg/ml protein or polypeptide", "procedure": "Purified VDAC (20 μg/ml) was incubated with recombinant BCl-xL (rBcl-xL) and recombinant Δ21 (rΔ21), and the resulting mixture was immunoprecipitated with anti-Bcl-xL (L19) antibody and normal rabbit IgG. In order to detect interactions between polypeptide and VDAC, isolated mitochondria (1 mg) were incubated with 20 μg of Bcl-xL N-terminal polypeptide or Bcl-xL C-terminal polypeptide for 5 minutes. Thereafter, the resulting mitochondria were pelleted, washed, and suspended in a lysis buffer (10 mM HEPES, pH 7.4, 142.5 mM KCl, 5 mM MgCl2, 1 mM EGTA and 0.5% NP40) in the presence of proteinase inhibitors (0.1 mM p-APMSF, 10 μg/ml aprotinin, 1 μg/ml chymostatin, 1 μg/ml leupeptin, 1 μg/ml antipain, 1 μg/ml pepstatin), followed by ultrasonic disruption. Immunoprecipitation was carried out with anti-Bcl-x polyclonal antibodies corresponding to the polypeptides used. Co-immunoprecipitation of VDAC was detected by Western blotting using an anti-VDAC antibody."}, "HeLa cells": {"tested_on": "HeLa cells", "experiment": "VP16-induced apoptosis in HeLa cells in the presence of TAT-BH4 polypeptide", "type": "cell-based, human", "details": "VP16 for 24 hours, polypeptide in the culture medium", "procedure": "FIG. 17 is a diagram showing the results for evaluating the effect of TAT-BH4 polypeptide on VP16-induced apoptosis. Cells were treated with VP16 at the indicated concentrations for 24 hours in the presence of 100 μg/ml TAT-BH4 polypeptide (□) or TAT polypeptide (∘) or absence of polypeptide (●) and then stained with Hoechst 33342. Apoptotic cell death was determined by the morphology of nuclei using a fluorescence microscope. Data shown are from one of three independent experiments.\nFIG. 18 is a diagram showing the results for evaluating the dose-dependent inhibition of VP16-induced apoptosis by TAT-BH4 polypeptide. […] Apoptotic cell death was determined in the same manner as in FIG. 17.\nThe inhibition and promotion of apoptosis can be evaluated by, for instance, the following method, without being limited thereto.\nTherefore, in order to facilitate the transport of the BH4 polypeptide into cells, the above-mentioned TAT-BH4 polypeptide of 30 amino acid residues was synthesized, the polypeptide comprising N-terminal eosin-conjugated cystein and the PTD of HIV TAT protein fused to the Bcl-xL BH4 polypeptide. HeLa cells were treated with 200 μM VP16 in the presence of the TAT-BH4 polypeptide, and then observed by an optical phase-contrast microscope and a fluorescence microscope, respectively. […]"}, "Rat liver mitochondria [1]": {"tested_on": "Rat liver mitochondria", "experiment": "Ca2+-induced ΔΨ loss in isolated mitochondria (Rhodamine 123 uptake)", "type": "biochemical", "details": "for Inhibition of Ca2+-induced mitochondrial ΔΨ loss: mitochondria 1 mg/ml, 40 μM Ca2+, 20 μg/ml protein or polypeptide", "procedure": "(§1) Rat liver mitochondria (1 mg protein/ml) isolated in accordance with a report made by Shimizu et al. [Oncogene, 13, 21-29(1996)] were incubated at 25° C. in a medium containing 0.3 M mannitol, 10 mM HEPES/K^+ (pH 7.4), 0.1% fatty acid-free BSA, 1 mM potassium phosphate, 40 μM CaCl2 and 4.2 mM succinate for energization in the presence or absence of recombinant proteins.\nΔΨ was assessed by measuring the uptake of Rhodamine 123 (Rh123) as previously described by Shimizu et al. [Oncogene, 13, 21-29(1996)].\nIsolated mitochondria (1 mg/ml) were incubated with 20 μg/ml Bcl-xL BH4 polypeptide in the presence of 40 μM Ca^2+, and thereafter Rhodamine 123 intensity was continuously monitored. The results are shown in the left panel of FIG. 14. In addition, isolated mitochondria (1 mg/ml) were incubated with 20 μg/ml BH4 polypeptide of Bcl-xL and any of various mutant polypeptides in the presence of 40 μM Ca for 15 minutes, and thereafter ΔΨ was measured by Rhodamine 123 intensity. The results are shown in the right panel of FIG. 14."}, "Bax": {"molecular_target": "T3, Bax (Homo sapiens, UniProt Q07812)", "T3 construct": "made in house", "T3 sequence (Q07812 whole entry)": "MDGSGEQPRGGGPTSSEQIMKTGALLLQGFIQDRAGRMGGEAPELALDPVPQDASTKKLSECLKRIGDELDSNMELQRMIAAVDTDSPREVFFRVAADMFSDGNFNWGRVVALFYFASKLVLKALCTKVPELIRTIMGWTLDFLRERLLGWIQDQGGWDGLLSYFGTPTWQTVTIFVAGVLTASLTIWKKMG", "experiment": "Binding of BH4 polypeptide to Bax"}, "Rat liver mitochondria [2]": {"tested_on": "Rat liver mitochondria", "experiment": "Ca2+-induced cytochrome c release from isolated mitochondria (Western blot)", "type": "biochemical", "details": "mitochondria 1 mg/ml, 40 μM Ca2+, 20 μg/ml protein", "procedure": "as §1\nThe cytochrome c release was evaluated by centrifuging the above-mentioned mitochondria, re-suspending the resulting pellets in an RIPA buffer to give mitochondria suspension, and subjecting the mitochondria suspension and supernatant to Western blot analysis using anti-cytochrome c antibodies."}, "[3]": {"molecular_target": "rat liver VDAC (voltage-dependent anion channel) (rat, UniProt Q9Z2L0 2-283)", "sequence (Q9Z2L0 2-283)": "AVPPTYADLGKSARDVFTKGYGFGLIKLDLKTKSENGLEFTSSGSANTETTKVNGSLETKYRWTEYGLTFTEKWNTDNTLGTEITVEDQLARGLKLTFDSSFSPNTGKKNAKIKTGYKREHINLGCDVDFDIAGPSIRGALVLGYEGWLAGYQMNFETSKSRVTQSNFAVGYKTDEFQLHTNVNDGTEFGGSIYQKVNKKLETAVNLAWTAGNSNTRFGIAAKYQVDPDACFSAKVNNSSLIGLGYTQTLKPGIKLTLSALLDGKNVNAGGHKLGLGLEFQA", "experiment": "cell-based or functional assay"}},
  "data": [
    {"molecule": "FL1213GG: F12L13 mutant of human Bcl-xL BH4 polypeptide (FIG. 13) (SNRELVVDGGSYKLSQKGYS) [reference compound]", "values": [
      {"measurement": "Inhibition of VDAC activity (VDAC-mediated sucrose uptake)", "setting": "Rat liver VDAC; VDAC liposomes, 50 mM sucrose", "value": "did not inhibit"}
    ]},
    {"molecule": "L17W: Bcl-xL BH4 polypeptide with one amino acid substitution at L17 (SNRELVVDFLSYKWSQKGYS) [Polypeptide L17W, reference compound]", "values": [
      {"measurement": "VDAC inhibitory activity as compared to VDAC inhibition of the normal BH4 polypeptide (fraction in words)", "setting": "Rat liver VDAC; 20 μg/ml polypeptide, 50 mM sucrose", "value": "about one-half"}
    ]},
    {"molecule": "LV89GG: L8V9 mutant of human Bcl-xL BH4 polypeptide (FIG. 13) (SNREGGVDFLSYKLSQKGYS) [reference compound]", "values": [
      {"measurement": "Inhibition of VDAC activity (VDAC-mediated sucrose uptake)", "setting": "Rat liver VDAC; VDAC liposomes, 50 mM sucrose", "value": "did not inhibit"}
    ]},
    {"molecule": "LV89VF: L8V9 mutant of human Bcl-xL BH4 polypeptide (FIG. 13) (SNREVFVDFLSYKLSQKGYS) [reference compound]", "values": [
      {"measurement": "Inhibition of VDAC activity (VDAC-mediated sucrose uptake)", "setting": "Rat liver VDAC; VDAC liposomes, 50 mM sucrose", "value": "did not inhibit"}
    ]},
    {"molecule": "N-terminal fragment (amino acid nos: 2 to 9) of Bcl-xL: N-terminal (amino acid nos: 2 to 19) polypeptide of Bcl-xL purchased from Santa Cruz Biotechnology (SQSNRELVVDFLSYKLSQ) [reference compound]", "values": [
      {"measurement": "Interaction with VDAC (co-immunoprecipitation)", "setting": "VDAC", "value": "detected, although to a lesser extent"}
    ]},
    {"molecule": "SNRELVVDFLSYKLSQKGYS (listed as Homo sapiens) [BH4 polypeptide, amino acid nos: 4 to 23 of human Bcl-xL]", "values": [
      {"measurement": "Inhibition of VP16-induced apoptosis", "setting": "HeLa cells", "value": "no effect"},
      {"measurement": "Closure of VDAC", "setting": "Rat liver VDAC; 20 μg/ml BH4 polypeptide", "value": "complete closure"},
      {"measurement": "Inhibition of rBax-induced enhancement of VDAC activity", "setting": "Rat liver VDAC; VDAC liposomes, 5 μg/ml rBax, 50 mM sucrose", "value": "inhibited the rBax-induced enhancement of VDAC activity in a dose-dependent manner"},
      {"measurement": "Inhibition of VDAC activity (VDAC-mediated sucrose uptake)", "setting": "Rat liver VDAC; VDAC liposomes, 50 mM sucrose", "value": "inhibited the VDAC activity in a concentration-dependent manner"},
      {"measurement": "Inhibition of VDAC activity (VDAC-mediated sucrose uptake)", "setting": "Rat liver VDAC; VDAC liposomes, 50 mM sucrose, listed as BH4 polypeptide of BCl-xL", "value": "significantly inhibits"},
      {"measurement": "Molar concentration needed to inhibit ΔΨ loss and VDAC activity, relative to recombinant Bcl-xL", "setting": "Rat liver mitochondria [1]; applies to Ca2+-induced ΔΨ loss and VDAC activity", "value": "about 25 fold"},
      {"measurement": "Inhibition of Ca2+-induced mitochondrial ΔΨ loss", "setting": "Rat liver mitochondria [1]", "value": "significantly inhibits"},
      {"measurement": "Binding to Bax", "setting": "Bax", "value": "did not bind"}
    ]},
    {"molecule": "TGYDNREIVMKYIHYKLSQRGYEW (listed as Homo sapiens) [BH4 polypeptide derived from Bcl-2, amino acid nos: 7 to 30 of human Bcl-2]", "values": [
      {"measurement": "Inhibition of VDAC activity (VDAC-mediated sucrose uptake)", "setting": "Rat liver VDAC; VDAC liposomes, 50 mM sucrose", "value": "inhibited VDAC activity"}
    ]},
    {"molecule": "VAQDTEEVFRSYVFYRHQQEQEAE [polypeptide derived from Bak, reference compound]", "values": [
      {"measurement": "Inhibition of VDAC activity (VDAC-mediated sucrose uptake)", "setting": "Rat liver VDAC; VDAC liposomes, 50 mM sucrose", "value": "inactive"}
    ]},
    {"molecule": "eosin-C-RKKRRQRRR [TAT-only polypeptide, reference compound]", "values": [
      {"measurement": "Inhibition of VP16-induced apoptosis", "setting": "HeLa cells", "value": "did not significantly inhibit"}
    ]},
    {"molecule": "rBcl-xL: recombinant human Bcl-xL expressed as GST fusion in Escherichia coli, GST cleaved with thrombin", "values": [
      {"measurement": "Inhibition of VDAC activity (VDAC-mediated sucrose uptake)", "setting": "Rat liver VDAC; VDAC liposomes, 50 mM sucrose", "value": "inhibited"},
      {"measurement": "Effect on VDAC-free liposomes", "setting": "Rat liver VDAC; VDAC-free liposomes", "value": "did not show any significant effect"},
      {"measurement": "Inhibition of Ca2+-induced mitochondrial ΔΨ loss", "setting": "Rat liver mitochondria [1]", "value": "inhibited"},
      {"measurement": "Inhibition of Ca2+-induced cytochrome c release", "setting": "Rat liver mitochondria [2]", "value": "inhibited"},
      {"measurement": "Interaction with VDAC (co-immunoprecipitation)", "setting": "VDAC", "value": "interacted with VDAC to a similar level"}
    ]},
    {"molecule": "rΔ21: recombinant human Bcl-xL lacking the N-terminus 21 amino acids residues (BH4 deletion mutant)", "values": [
      {"measurement": "Inhibition of VDAC activity (VDAC-mediated sucrose uptake)", "setting": "Rat liver VDAC; VDAC liposomes, 50 mM sucrose", "value": "did not affect"},
      {"measurement": "Inhibition of Ca2+-induced mitochondrial ΔΨ loss", "setting": "Rat liver mitochondria [1]", "value": "did not virtually show inhibitory activity"},
      {"measurement": "Inhibition of Ca2+-induced cytochrome c release", "setting": "Rat liver mitochondria [2]", "value": "did not virtually show inhibitory activity"}
    ]},
    {"molecule": "ΔFL: F12L13 mutant of human Bcl-xL BH4 polypeptide (FIG. 13) (SNRELVVDSYKLSQKGYS) [reference compound]", "values": [
      {"measurement": "Inhibition of VDAC activity (VDAC-mediated sucrose uptake)", "setting": "Rat liver VDAC; VDAC liposomes, 50 mM sucrose", "value": "did not inhibit"}
    ]},
    {"molecule": "ΔLV: L8V9 mutant of human Bcl-xL BH4 polypeptide (FIG. 13) (SNREVDFLSYKLSQKGYS) [reference compound]", "values": [
      {"measurement": "Inhibition of VDAC activity (VDAC-mediated sucrose uptake)", "setting": "Rat liver VDAC; VDAC liposomes, 50 mM sucrose", "value": "did not inhibit"}
    ]},
    {"molecule": "SNRELVVDFLSYKLSQKGYS", "note": "[Human Bcl-xL BH4 polypeptide (amino acid nos: 4 to 23 of human Bcl-xL)]", "values": [
      {"measurement": "molar concentration needed to inhibit Ca2+-induced membrane potential loss and VDAC activity, relative to recombinant Bcl-xL", "setting": "[3]", "value": "~25", "unit": "fold"}
    ]}
  ]
}
